Patent publication US20220143204A1 (LINXIS B V, published 2022)
Numbering of substitutions follows the chain as printed.

T1: rat PDGFRB extracellular domain (rat, UniProt Q05030 32-531)
T1 construct: extracellular domain; also called rPDGFRB-ECD; rat PDGFRB ectodomain
T1 sequence (looked up): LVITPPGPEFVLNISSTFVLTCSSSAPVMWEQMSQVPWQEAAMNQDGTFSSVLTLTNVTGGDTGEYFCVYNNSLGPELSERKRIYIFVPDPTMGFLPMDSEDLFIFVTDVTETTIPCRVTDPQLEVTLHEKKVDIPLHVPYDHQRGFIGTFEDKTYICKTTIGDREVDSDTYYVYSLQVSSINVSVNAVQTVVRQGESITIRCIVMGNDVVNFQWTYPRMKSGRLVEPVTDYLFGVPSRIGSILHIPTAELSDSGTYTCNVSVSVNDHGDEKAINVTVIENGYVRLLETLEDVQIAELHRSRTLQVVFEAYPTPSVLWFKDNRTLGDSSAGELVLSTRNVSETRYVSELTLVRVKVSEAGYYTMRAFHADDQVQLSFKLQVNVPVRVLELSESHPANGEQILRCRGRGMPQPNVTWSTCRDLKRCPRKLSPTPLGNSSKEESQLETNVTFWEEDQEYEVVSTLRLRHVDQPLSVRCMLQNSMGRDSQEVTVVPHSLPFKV

B1: SP36P (VHH)
VHH: EVQLVESGGGLVQAGGSLRLSCTPSITTAGTTIMAWFRQAPGNEREFVAAIWGSKTAYGDSMKGRLTISRDNVRDNGQKTVFLQMNNLQLQDTATYYCAASSGGYVHSSTSYEIWGRGTQVTVSS
notes: Llama VHH; on phage in the phage ELISA
B2: SP31P (VHH)
VHH: EVQLVESGGGLVQAGGSLRLSCAASRGTFGTYIMGWFRQAPGKEREFVAAISWRGANTYYGYSVKGRFTISRDNAKNTMYLQMADLKPEDTADYYCGVHLNGTPYYYASGYRYWGQGTQVTVSS
notes: as for B1
B3: SP32P (VHH)
VHH: EVQLVESGGGTVQAGDSLRLSCTASGRTFSTYTMGWFRQAPGKERVVVAVNTWNNFTVHQPSVKGRFTMSRDNTKNSIYLQMDSLKPEDTAVYYCAASAKGTARYDYWGQGTQVTVSS
notes: as for B1
B4: SP35P (VHH)
VHH: EVQLVESGGGLVQPGGSLRLSCAASGSLGSNNPMAWYRQAPGKERELVASISSAYRTHYADFVKGRFTISRDSPKNTVSLQMNNLKPEDTAVYYCGIFVSARNYWGKGTQVTVSS
notes: as for B1
B5: SP29P (VHH)
VHH: EVQLVESGGGLVQAGDSLRLSCTVSGRTFNTYVTGWFRQAPGKEREFVAAIHQIGSTYYRNSVKGRFTISRDGAKDTVYLQMNNLKPEDSAVYYCAAGNGGYVMSDIAYGTWGQGTQVTVSS
notes: as for B1
B6: SP25P (VHH)
VHH: EVQLVESGGGLVQPGGSLRLSCAASESIFSINAMGWYRQTPGKQREMVASITPGGFTIYADSVKGRFTISRDNAKNTLYLQMNNLRFEDTAVYYCNAFAGSATSYHDFGSWGQGTQVTVSS
notes: as for B1
B7: SP27P (VHH)
VHH: EVQLVESGGGLVQIGDSLRLSCAASGGTFNRYGMGWFRQAPGKEREFVAAIRWDGVDTNYADFVKGRFTISRYNAKNTAYLQMNSLKPEDTAVYYCAADRRGLYTKHAHRYDYWGQGTQVTVSS
notes: as for B1
B8: SP30P (VHH)
VHH: B2 VHH with Y32D
notes: as for B1
B9: SP01P (VHH)
VHH: EVQLVESGGGLAQAGGSLRLSCVASGNIDSANGMAWYRQAPGKQRELVAHITSGTSYYVASVEGRFTISRANAKDTWYLQMNSLKPEDTGVYYCFPIGLSAHWSQGTQVTVSS
notes: as for B1
B10: SP14P (VHH)
VHH: EVQLVESGGGLVQAGDSLRLSCVVSGLTFSRYGMGWFRQATGKEREFVGGISVGSSGTMYPNSVKGRFTISRDNAKSTVYLQMNSLKPEDTAVYFCAAIDQGSFVQQRDYRYWGQGTQVTVSS
notes: as for B1
B11: SP05P (VHH)
VHH: EVQLVESGGGLVQAGGSLRLSCAASGRTSFSGYAMAWFRQAPGKERDFVASITWSYGYTYYTDSAQGRFTISRDSAKNTVYLEMNSLKPEDTAVYYCAADPKASRFRILREYAYWGQGTQVTVSS
notes: as for B1
B12: SP12P (VHH)
VHH: EVQLVESGGGLVQAGGSLRLSCVISGRTSPTYPMGWFRQSPGNEREFVASINWSGGWRNYADSVKGRFTISRDDAKNTVYLQMNSLKPEDTAVYYCARGQYSSGTPVYAHEYAYWGQGTQVTVSS
notes: as for B1
B13: SP20P (VHH)
VHH: B12 VHH with G66D
notes: as for B1
B14: SP13P (VHH)
VHH: EVQLVESGGGLVQPGGSLRLSCAASESIFSINYMAWYRQAPGKQRELVAFSIDGSSTNYVDSVRGRFTASRDNAENTLYLQMNSLKPEDTAVYYCYAQGNTWAAGVWGQGTQVTVSS
notes: as for B1
B15: SP08P (VHH)
VHH: EVQLVESGGGLVQAGGSLRLSCAASGRTFNGYAMAWFRQAPGKERDFVASITWSYGYTYYADSAQGRFTISRDSAKNTVYLEMNSLKPEDTAVYYCAADPKASRFRILRQYAHWGQGTQVTVSS
notes: as for B1
B16: SP10P (VHH)
VHH: EVQLVESGGGLVQAGGSLRLSCAASGRTFNGYAMGWFRQAPGKERDFVAAITWSYGYTHYAESVKGRFSISRDSANNMVYLEMNSLKPEDTAVYYCAADPKASRFRTLRRYDYWGQGTQVTVSS
notes: as for B1
B17: SP07P (VHH)
VHH: EVQLVESGGGSVQTGGSLRLSCAASGRSFSTYAMAWFRQAPGKEREFVAAINRRATDTVYADSAKGRFIISRDNDKNTVYLQMDSLKTEDTAVYYCAAAKNAYDWRWDRLRDRDYWGQRGQGTQVTVSS
notes: as for B1
B18: SP21P (VHH)
VHH: EVQLVESGGGLVQPGGSLRLSCVVSGSSFSSYTMGWFRRAPGKQRELVAGVSTVGDTAAADSVKGRFTISRDNAKNTVYLQMNSLKPEDTAVYYCNTYPHAYLEWGQGTQVTVSS
notes: as for B1
B19: SP23P (VHH)
VHH: EVQLVESGGELVQAGGSLRLSCAVSGRTLTSYPMGWFRQAPGKEREFVAAISWSGGDTMYADSVKGRFTISRDNSKNTVYLQMNSLKPEDTADYYCARRRYSSGISRHLVDYEYWGQGTQVTVSS
notes: as for B1
B20: SP11P (VHH)
VHH: EVQLVESGGGLVQAGDSLRLSCAASGRTFSSYPIAWFRQAPGKEREFVAAITSSGLTTYYANVVKGRFAISRDNAKDTVYLQMNSLKPEDTAVHYCATSNGFLSGRDIYQHNKYIYWGQGTQVTVSS
notes: as for B1
B21: SP17P (VHH)
VHH: EVQLVESGGGLVQPGGSLRLSCAASGLTFVNYAMGWFRQAPGKERELVAGIASSGRIYYADSVAGRFTISRDNARNTVNLQMNSMKPEDTAVYYCAGRRSFSSTSAADYNYWGQGTQVTVSS
notes: as for B1
B22: SP15P (VHH)
VHH: EVQLVESGGGLVQAGGSLRLSCAASGRAFGGPYMAWFRQTPGKGREFVAAISPSSVYTFYQDSVKGRFTISRDNTKNTAYLQMNSLKPEDTAVYYCAAEAAGEVRLETSYKYWGQGTQVTVSS
notes: as for B1

Each binder was assayed against T2, rat PDGFRB on SCC VII cells (rat, UniProt Q05030 32-1097) (assay: binding assay on SCC VII cells transfected with rat PDGFRB (Example 4)).
T2 construct: whole, on cells; also called rPDGFRB; SCC-rPDGFRB

Going from B1 to B2, the Kd falls from 76.6 nM to 31.8 nM (2.4-fold).

The binders below were run against T1, rat PDGFRB extracellular domain (assay: binding assay on immobilised rat PDGFRB ectodomain, apparent affinity (Example 4)).

B3: binds.
B4: binds.
B5: binds.
B6: binds.

B1 and B7 are within 1.5-fold of each other in Kd: 31 nM for the first, 25.5 nM for the second.

First: B2
Second: B8
The Kd of the first is 23-fold higher: 276 nM for the first, 12.2 nM for the second. The second binds more tightly here.

What follows are binders tested against T3, human PDGFRB on SCC VII cells (human, UniProt P09619 33-1106) (assay: binding assay on SCC VII cells transfected with human PDGFRB (Example 4)).
T3 construct: whole, on cells; also called hPDGFRB; SCC-hPDGFRB
T3 sequence (P09619 33-1106): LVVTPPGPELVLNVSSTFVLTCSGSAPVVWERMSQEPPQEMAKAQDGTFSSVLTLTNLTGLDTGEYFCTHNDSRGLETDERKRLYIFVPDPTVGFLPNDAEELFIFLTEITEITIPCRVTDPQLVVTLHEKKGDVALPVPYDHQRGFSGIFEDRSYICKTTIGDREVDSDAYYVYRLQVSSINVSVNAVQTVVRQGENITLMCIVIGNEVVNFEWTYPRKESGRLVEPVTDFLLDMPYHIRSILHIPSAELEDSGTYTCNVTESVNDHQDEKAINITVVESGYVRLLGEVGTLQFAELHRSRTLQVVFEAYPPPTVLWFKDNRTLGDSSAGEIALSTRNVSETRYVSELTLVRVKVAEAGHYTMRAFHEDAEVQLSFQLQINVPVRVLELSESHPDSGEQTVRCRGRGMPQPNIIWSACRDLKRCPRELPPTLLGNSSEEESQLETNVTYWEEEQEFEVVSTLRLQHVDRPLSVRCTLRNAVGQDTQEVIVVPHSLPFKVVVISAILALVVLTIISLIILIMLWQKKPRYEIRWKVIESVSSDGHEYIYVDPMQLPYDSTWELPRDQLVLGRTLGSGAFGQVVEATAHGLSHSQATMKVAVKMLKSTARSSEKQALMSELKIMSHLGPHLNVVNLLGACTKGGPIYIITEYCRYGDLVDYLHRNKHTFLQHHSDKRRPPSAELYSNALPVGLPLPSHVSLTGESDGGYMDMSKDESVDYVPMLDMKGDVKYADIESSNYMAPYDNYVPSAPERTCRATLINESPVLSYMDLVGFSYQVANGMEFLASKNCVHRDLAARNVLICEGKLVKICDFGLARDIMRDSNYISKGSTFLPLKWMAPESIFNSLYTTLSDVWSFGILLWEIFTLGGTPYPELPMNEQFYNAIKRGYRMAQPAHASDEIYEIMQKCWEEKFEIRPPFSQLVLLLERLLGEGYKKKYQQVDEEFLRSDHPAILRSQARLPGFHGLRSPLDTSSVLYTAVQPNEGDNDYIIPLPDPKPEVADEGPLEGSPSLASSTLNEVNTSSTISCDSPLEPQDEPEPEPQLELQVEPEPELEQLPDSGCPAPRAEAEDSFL

Going from B9 to B10, the Kd falls from 7.8 nM to 0.6 nM (13-fold).

Going from B11 to B12, the Kd falls from 1.4 nM to 0.3 nM (4.7-fold). The second binds more tightly here.

Compared with B13, B14 is 10-fold higher in Kd: 1 nM for the first, 10.4 nM for the second. The first binds more tightly here.

First: B15
Second: B16
The Kd of the first is 1.8-fold lower: 0.5 nM for the first, 0.9 nM for the second.

With B17 the Kd was 62.3 nM.

The binders below were run against T4, human PDGFRB on LX-2 cells (human, UniProt P09619) (assay: binding assay on the human hepatic stellate cell line LX-2 (Example 4)).
T4 construct: full-length receptor on the cell surface; The list has human PDGFRB only on SCC VII cells
T4 sequence (P09619 33-1106 limits assumed): as the sequence (P09619 33-1106) above

Compared with B10, B11 is 62-fold higher in Kd: 3.1 nM for the first, 193 nM for the second. The first binds more tightly here.

First: B12
Second: B13
The Kd of the first is 89-fold lower: 0.6 nM for the first, 53.6 nM for the second. The first binds more tightly here.

With B15 the Kd was 60.2 nM.

These binders were tested against T5, human PDGFRB extracellular domain (human, UniProt P09619 33-532) (assay: binding assay on immobilised human PDGFRB ectodomain, apparent affinity (Example 4)).
T5 construct: extracellular domain; also called hPDGFRB-ECD; human PDGFRB ectodomain
T5 sequence (P09619 33-532): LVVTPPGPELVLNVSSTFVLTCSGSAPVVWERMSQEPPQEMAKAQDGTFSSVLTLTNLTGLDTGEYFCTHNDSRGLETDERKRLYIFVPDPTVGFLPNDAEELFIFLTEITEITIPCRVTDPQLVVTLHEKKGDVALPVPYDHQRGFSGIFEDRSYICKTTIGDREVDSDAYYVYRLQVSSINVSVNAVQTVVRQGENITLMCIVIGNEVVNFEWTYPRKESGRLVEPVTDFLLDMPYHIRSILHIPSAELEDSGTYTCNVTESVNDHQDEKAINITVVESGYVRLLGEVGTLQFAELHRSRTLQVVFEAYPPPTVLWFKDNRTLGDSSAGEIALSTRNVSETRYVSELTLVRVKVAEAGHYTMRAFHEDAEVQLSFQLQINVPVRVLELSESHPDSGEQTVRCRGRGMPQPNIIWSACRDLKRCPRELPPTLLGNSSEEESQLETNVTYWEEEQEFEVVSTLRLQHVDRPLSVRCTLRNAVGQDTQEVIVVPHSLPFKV

Compared with B9, B10 is 2.4-fold lower in Kd: 20.4 nM for the first, 8.6 nM for the second. The second binds more tightly here.

First: B11
Second: B13
The Kd of the first is 2.4-fold higher: 9.2 nM for the first, 3.8 nM for the second.

B14 and B17 are within 1.5-fold of each other in Kd: 9.3 nM for the first, 10.1 nM for the second.

B18: binds.
B19: binds.
B20: binds.
B21: binds.
B22: binds.
